Where only a bound is given, the exact number is not on record here.

The target of assay [1] is T1, recombinant His tagged human ROR1 (human, UniProt Q01973 30-403, limits assumed).
T1 construct: Analyte in the BLI assay; also called Human ROR1-His; recombinant ROR1
Description: BLI (Octet), FUSE protein on the tip, His tagged ROR1 in solution. As for the experimental part:
As shown in FIGS. 5A-5D, the binding affinities (KD) of TCEs for ROR1 were assessed. We examined the magnitude by which several TCEs and mutants thereof bind to recombinant ROR1. Kinetic binding graphs were generated via Bio-Layer Interferometry (BLI) using an Octet system. For each TCE, the biosensor tips were coated with FUSE proteins at 15 μg/ml and probed with either recombinant His tagged ROR1 at concentrations ranging from 100 pM to 10 μM. […] The binding affinity (KD), on rate (k-on) and off rate (k-dis), are summarized for ROR1 in FIG. 5D.
We further examined the impact of mutating the cysteine residues located in CDR1 and CDR3 of 2A11 VHH and 5A1 VHH.

The target in assay [2] is T1, recombinant His tagged human ROR1. Description: SPR (Biacore 8K), recombinant human ROR1 amine-coupled on a CM5 chip (4400 RU), analyte 200nM, 1:1 binding fit; column 'kd (1/s)' [table below it]. The protocol:
(§1) Protein test article binding to recombinant human ROR1 (Acro Biosystems, RO1-H522y) was detected on a BIAcore 8K (Cytiva) biosensor system using an SPR assay. Briefly, a carboxymethylated CM5 sensor chip was activated with 1:1 mixture of 0.4 M N-ethyl-N-(3-dimethylaminopropyl) carbodiimide and 0.1 M′ N-hydroxysuccinimide. Recombinant human ROR1 in 10 mM NaOAc (pH5) was then immobilized on the sensor chip by amine-coupling according to the manufacturer's instructions to yield the stable RU of 4400. Unreacted sites were blocked with 1M ethanolamine/HCl (pH 8). Control flow cells (blank) were activated and blocked in the absence of ROR1. Flow cells were routinely equilibrated with running buffer (PBS, 0.005% surfactant P20). Test article proteins used for assessment of binding to recombinant human ROR1 binding were diluted in HBS-EP running buffer and injected into the sensor chip at different concentrations. […] Data from duplicate assays were modeled for binding equilibrium and dot plots for 200 nM of protein test article was calculated. Association constant (ka), dissociation constant (kd) and binding affinity (KD=kd/ka) were generated from integrated software in the BIAcore 8K system.
(§2) Shown are sensorgrams of surface plasmon resonance (SPR) data generated via Biacore analysis. A summary table of binding affinity (KD), on rate (k-a) and off rate (kd) is shown below FIG. 16B.

For assay [3], the target named is T2, human ROR1 (Receptor Tyrosine Kinase-Like Orphan Receptor 1) on the cell surface (human, UniProt Q01973 30-937).
T2 construct: whole, on cells; engineered into B16-F10 (high density) and LS174T (low density) cells; also called B16-F10-ROR1-H; LS174T-ROR1-L
T2 sequence (Q01973 30-937): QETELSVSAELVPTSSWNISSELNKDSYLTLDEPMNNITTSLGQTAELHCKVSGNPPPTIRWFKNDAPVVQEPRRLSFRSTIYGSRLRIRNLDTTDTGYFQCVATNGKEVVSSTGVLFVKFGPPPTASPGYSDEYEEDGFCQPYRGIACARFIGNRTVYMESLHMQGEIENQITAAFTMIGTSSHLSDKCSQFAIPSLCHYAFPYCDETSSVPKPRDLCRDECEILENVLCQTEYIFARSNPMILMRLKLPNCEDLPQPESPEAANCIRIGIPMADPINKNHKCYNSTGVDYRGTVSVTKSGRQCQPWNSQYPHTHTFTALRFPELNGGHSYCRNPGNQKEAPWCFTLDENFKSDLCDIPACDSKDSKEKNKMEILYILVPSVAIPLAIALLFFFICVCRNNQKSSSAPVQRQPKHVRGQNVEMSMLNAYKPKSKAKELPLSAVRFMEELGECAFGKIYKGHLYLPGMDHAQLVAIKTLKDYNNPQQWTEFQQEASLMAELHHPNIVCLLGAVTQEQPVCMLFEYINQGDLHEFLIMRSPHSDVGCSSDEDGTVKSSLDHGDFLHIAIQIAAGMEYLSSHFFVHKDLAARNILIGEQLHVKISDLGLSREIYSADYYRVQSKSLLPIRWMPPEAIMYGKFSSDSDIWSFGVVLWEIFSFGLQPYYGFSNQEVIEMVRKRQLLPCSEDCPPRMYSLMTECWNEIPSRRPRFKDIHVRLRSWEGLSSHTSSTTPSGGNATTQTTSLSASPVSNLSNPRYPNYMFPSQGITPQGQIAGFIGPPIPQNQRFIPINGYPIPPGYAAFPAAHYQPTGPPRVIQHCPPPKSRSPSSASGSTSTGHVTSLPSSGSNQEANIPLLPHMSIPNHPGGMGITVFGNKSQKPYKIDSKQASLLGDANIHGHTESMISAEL
Description: flow cytometry on B16-F10 cells engineered to express human ROR1, secondary antibody to the IgG1 Fc. The protocol:
As shown in FIG. 15 the apparent binding affinity (EC50-binding) of the ROR1 specific VHH-Fc incorporating either the non humanized VHH clone 5A1 (FUSE179; black circle), the humanized clone 5A1-FA9-HK1 (FUSE559; black square) or the humanized clone 5A1-HK1 (FUSE524; black triangle) was calculated. Shown is a non-linear x-y plot of binding to B16-F10 cell engineered to express human ROR1 relative to the concentration of test article used for staining. A Hen Egg Lysozyme (HEL)-specific antibody was used as the negative isotype control. Binding was measured via flow cytometry using a fluorescently labeled secondary antibody specific for the Fc domain of IgG1. A summary table of EC50s and maximum MFI is shown beneath under the graph.
On the technique in general: Flow cytometry measures light scatter and fluorescence of single cells or particles in a stream.

The target in assay [4] is T2, human ROR1 (Receptor Tyrosine …). Description: flow cytometry, LS174T cells expressing human ROR1 (low density). As for the experimental part: (§3) As shown in the tables below, mouse B16-F10 melanoma (Tables 9A-9F) or LS174T human colorectal adenocarcinoma (Tables 9G-9H) cells genetically engineered to express human ROR1 at high and low densities, respectively, were stained for flow cytometric analysis with 100 nM of humanized variants of the ROR1 specific VHHs, 5A1 or 2A11 in either a VHH-Fc format or the Ac13 format shown in FIG. 1. Cells were analyzed on a flow cytometer after the primary test article was fluorescently tagged with a goat anti human IgG-Fc specific PE secondary antibody. The positive control used was PE conjugated anti-human ROR1 clone 2A2. Negative controls included a PE labeled mouse IgG Ab, the secondary antibody only, the combination of a Hen Egg Lysozyme (HEL) specific antibody plus goat anti human IgG-Fc specific PE and Fluorescence Minus One (FMO). Other controls included the non-humanized version of 5A1-Fc (FUSE179), 2A11-Fc (FUSE112) and 5A1-Ac13 (FUSE488). Humanized variants were generated using computational design (FUSE489, FUSE497-498, FUSE563, FUSE569-570, and BI-HU9-VHH11-33), a yeast display library in which mutations were inserted into the Vernier zone residues of human framework indicated in GenBank accession number M99660 (FUSE524-525, FUSE589, FUSE597-598, FUSE537, FUSE661-662, BI-HU9-HK and BI-HU9-HK-1), and a second yeast display library in which mutations were inserted into the Vernier zone residues of human framework indicated in GenBank accession number AWH66715 and amino acid position 103 within CDR3 (FUSE559, FUSE590-596, BI-HU9-VH9-1, FUSE654-655 and FUSE661-662. Affinity matured variants of FUSE559 were also generated using computational design (F22158101-21; Table 9H).

Assay [5] has as its target T1, recombinant His tagged human ROR1. Description: SPR (Biacore 8K), recombinant human ROR1 amine-coupled on a CM5 chip (4400 RU), analyte 200nM, 1:1 binding fit; column '1:1 binding ka (1/Ms)' [table below it]. As for the experimental part: as §1, §2
Background: SPR reads the build-up and loss of mass on a sensor chip optically.

Assay [6] has as its target T2, human ROR1 (Receptor Tyrosine …). Description: flow cytometry, LS174T cells expressing human ROR1 (low density). The protocol:
as §3
This is another data set of the same source.

Assay [7] has as its target T1, recombinant His tagged human ROR1. Description: SPR (Biacore 8K), recombinant human ROR1 amine-coupled on a CM5 chip (4400 RU), analyte 200nM, 1:1 binding fit [table below it]. As for the experimental part:
as §1, §2

The target of assay [8] is T2, human ROR1 (Receptor Tyrosine …). Description: flow cytometry, B16-F10 cells expressing human ROR1 (high density). As for the experimental part: as §3
The target is the same in assay [9]. The assay is described as above. The protocol: as §3
The source holds these as a separate data set.

For assay [10] the target is unchanged. Described as above. The protocol: as §3
The source holds these as a separate data set.

Assay [11] deals with T3, human CD3 on T cells (human, UniProt P07766 23-207; P09693 23-182; P04234 22-171; P20963 22-164).
T3 construct: whole, on cells; also called human CD3 on Jurkat T cells; human CD3 on T cells isolated from human PBMC
T3 sequence (P07766 23-207, chain 1 of 4): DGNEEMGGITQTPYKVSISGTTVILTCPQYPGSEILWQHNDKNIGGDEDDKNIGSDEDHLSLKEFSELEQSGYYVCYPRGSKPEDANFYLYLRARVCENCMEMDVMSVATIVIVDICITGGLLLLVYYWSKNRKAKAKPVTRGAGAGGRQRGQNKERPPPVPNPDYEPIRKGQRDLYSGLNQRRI
T3 sequence (P09693 23-182, chain 2 of 4): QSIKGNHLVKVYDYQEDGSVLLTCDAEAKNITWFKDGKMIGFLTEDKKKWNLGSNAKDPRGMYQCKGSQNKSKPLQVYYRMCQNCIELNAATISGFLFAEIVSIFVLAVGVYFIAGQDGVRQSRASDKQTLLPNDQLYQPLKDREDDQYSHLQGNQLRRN
T3 sequence (P04234 22-171, chain 3 of 4): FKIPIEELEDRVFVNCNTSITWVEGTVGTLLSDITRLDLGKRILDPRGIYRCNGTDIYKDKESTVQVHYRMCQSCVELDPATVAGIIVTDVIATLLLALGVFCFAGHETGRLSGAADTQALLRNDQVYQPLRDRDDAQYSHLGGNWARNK
T3 sequence (P20963 22-164, chain 4 of 4): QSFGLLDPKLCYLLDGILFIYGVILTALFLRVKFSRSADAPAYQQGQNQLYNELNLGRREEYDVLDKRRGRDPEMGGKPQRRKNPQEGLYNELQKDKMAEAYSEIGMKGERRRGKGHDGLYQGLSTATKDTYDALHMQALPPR
Description: flow cytometry on CD3+ Jurkat NFAT Lucia cells, secondary antibody to the IgG1 Fc.

Assay [12] deals with T2, human ROR1 (Receptor Tyrosine …). Description: flow cytometry on ROR1+ MDA-MB-231 cells, secondary antibody to the IgG1 Fc; table row 'Binding EC50 (nM)', the graph's axis reads 'Concentration (pM)'.

T1 sequence (Q01973 30-403 limits assumed): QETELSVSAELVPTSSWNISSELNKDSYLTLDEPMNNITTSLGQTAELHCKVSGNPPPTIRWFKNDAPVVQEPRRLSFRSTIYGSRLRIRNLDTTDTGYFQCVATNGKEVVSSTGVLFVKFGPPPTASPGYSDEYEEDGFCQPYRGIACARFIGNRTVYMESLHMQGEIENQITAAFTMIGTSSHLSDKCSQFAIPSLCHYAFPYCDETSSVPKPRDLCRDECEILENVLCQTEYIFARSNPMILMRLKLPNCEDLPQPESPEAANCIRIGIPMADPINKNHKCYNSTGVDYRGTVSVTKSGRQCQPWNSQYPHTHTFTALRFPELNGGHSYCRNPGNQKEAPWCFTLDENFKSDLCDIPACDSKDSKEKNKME

B1: FUSE-454 (5A1 VHH mutant-Fc fusion protein) (Fc fusion)
chain: QVQLQESGGGSVQAGGSLKLSCTASGYTNRLKVMGWFRQAPGKEREEIATISTGTGNTYYADSVKGRFTFSQDKVKNTVYLQMNTLKPDDTGMYYCAADVRPDGTTVHYNSGGQGTQVTVSS
notes: also called mutant 5A1; 5A1-CV; not shown: human Fc
As for B1, the “fold lower affinity than the parent (printed FUSE-454, meant FUSE-179)” value in assay [1] is above 100 fold.

B2: FUSE-453 (2A11 VHH mutant-Fc fusion protein) (Fc fusion)
chain: QVQLQESGGGSVPAGGSLRLSCAASGSTYSANVMGWFRQAPGKEREEVASMSIRSGRTYYSDSVKGRFTISQDGSKNTLYLQLNSLKAEDTALYYCAAAYGGSRVVYNYRGQGTQVTVSS
notes: also called mutant 2A11; 2A11-CV; not shown: human Fc
Consider B2, for which the “fold lower affinity than FUSE-112” value in [1] is above 100 fold.

B3: FUSE-559 (h5A1-FA9-HK1 Fc) (Fc fusion)
chain: EVQLLESGGGLVQPGGSLRLSCTASGYTNRLKCMGWFRQAPGKEREEIASISTGTGNTYYADSVKGRFTISRDKSRNTLYLQMNTLRAEDTAVYYCAADVRPHGTTCHYNSRGQGTQVTVSS
notes: VHH-Fc format; also called humanized clone 5A1-FA9-HK1; not shown: Fc of the VHH-Fc format
On to B3, for which the koff in [2] was 0.00077 s⁻¹. Further, the midpoint of the response in [3], the EC50, lay at 2.31 nM. Also, in assay [3], the “Max MFI” value turned out to be 7600 MFI. For the same molecule, the MFI is 24400 in assay [4], 3120 in assay [6], 199000 in assay [8] and 6080 in assay [9]. Moreover, the kon in assay [5] worked out at 301000 M⁻¹ s⁻¹. In [7], the Kd came to 2.56 nM.

B4: FUSE-488 (5A1-Ac13) (bispecific antibody, human IgG1, lambda, L234A L235A)
heavy: EVQLVESGGGLVQPGGSLRLSCAASGFTFSTYAMNWVRQAPGKGLEWVARIRSKYNNYATYYADSVKDRFTISRDDSKNTLYLQMNSLRAEDTAVYYCARHGNFGNSYVSWFAYWGQGTMVTVSSASTKGPSVFPLAPSSKSTSGGTAALGCLVKDYFPEPVTVSWNSGALTSGVHTFPAVLQSSGLYSLSSVVTVPSSSLGTQTYICNVNHKPSNTKVDKKVEPKSCDKTHTCPPCPAPEAAGGPSVFLFPPKPKDTLMISRTPEVTCVVVDVSHEDPEVKFNWYVDGVEVHNAKTKPREEQYNSTYRVVSVLTVLHQDWLNGKEYKCKVSNKALPAPIEKTISKAKGQPREPQVYTLPPSREEMTKNQVSLSCAVKGFYPSDIAVEWESNGQPENNYKTTPPVLDSDGSFFLVSKLTVDKSRWQQGNVFSCSVMHEALHNRFTQKSLSLSPGK
chain: QVQLQESGGGSVQAGGSLKLSCTASGYTNRLKCMGWFRQAPGKEREEIATISTGTGNTYYADSVKGRFTFSQDKVKNTVYLQMNTLKPDDTGMYYCAADVRPDGTTCHYNSGGQGTQVTVSSEPKSSDKTHTCPPCPAPEAAGGPSVFLFPPKPKDTLMISRTPEVTCVVVDVSHEDPEVKFNWYVDGVEVHNAKTKPREEQYNSTYRVVSVLTVLHQDWLNGKEYKCKVSNKALPAPIEKTISKAKGQPREPQVYTLPPSREEMTKNQVSLWCLVKGFYPSDIAVEWESNGQPENNYKTTPPVLDSDGSFFLYSKLTVDKSRWQQGNVFSCSVMHEALHNHYTQKSLSLSPGK
light: QAVVTQEPSLTVSPGGTVTLTCRSSTGAVTTSNYANWVQQKPGQAPRGLIGGTNKRAPGTPARFSGSLLGGKAALTLSGVQPEDEAEYYCALWYSNLWVFGGGTKLTVLGQPKAAPSVTLFPPSSEELQANKATLVCLISDFYPGAVTVAWKADSSPVKAGVETTTPSKQSNNKYAASSYLSLTPEQWKSHRSYSCQVTHEGSTVEKTVAPTECSGGGGSGGGGSGGGGSGGGGSQVQLQESGGGSVQAGGSLKLSCTASGYTNRLKCMGWFRQAPGKEREEIATISTGTGNTYYADSVKGRFTFSQDKVKNTVYLQMNTLKPDDTGMYYCAADVRPDGTTCHYNSGGQGTQVTVSS
notes: also called humanized CD3 clone 1F3.3 x ROR1 VHH 5A1; non humanized 5A1 x 1F3-3 bsAb in format Ac13
Regarding B4, the MFI in [10] was 3910. For the same molecule, the EC50 in assay [11] turned out to be 10.6 nM; in assay [12] it was 19.2 nM.

One may read the koff as a measure of how fast the partners let go of each other. A word on the EC50: it is the midpoint of the concentration-response curve. Read a high EC50 as weaker potency. As a reminder, the kon is the second-order rate constant of association. Broadly, the Kd is a measure of binding affinity in units of concentration.
